Reference: US20210169929A1

Target: CD19 CAR (4G7-CAR) encoded by Construct 1, expressed on transfected HEK293 cells
Assay: flow cytometry, HEK293 cells transfected with Construct 1, biotinylated CD19 then streptavidin-PE; unstained 17.4, streptavidin-PE only 18.5

CD19 CAR (4G7-CAR) encoded by Construct 1, expressed on transfected HEK293 cells, sequence (chain, as listed by the source limits assumed): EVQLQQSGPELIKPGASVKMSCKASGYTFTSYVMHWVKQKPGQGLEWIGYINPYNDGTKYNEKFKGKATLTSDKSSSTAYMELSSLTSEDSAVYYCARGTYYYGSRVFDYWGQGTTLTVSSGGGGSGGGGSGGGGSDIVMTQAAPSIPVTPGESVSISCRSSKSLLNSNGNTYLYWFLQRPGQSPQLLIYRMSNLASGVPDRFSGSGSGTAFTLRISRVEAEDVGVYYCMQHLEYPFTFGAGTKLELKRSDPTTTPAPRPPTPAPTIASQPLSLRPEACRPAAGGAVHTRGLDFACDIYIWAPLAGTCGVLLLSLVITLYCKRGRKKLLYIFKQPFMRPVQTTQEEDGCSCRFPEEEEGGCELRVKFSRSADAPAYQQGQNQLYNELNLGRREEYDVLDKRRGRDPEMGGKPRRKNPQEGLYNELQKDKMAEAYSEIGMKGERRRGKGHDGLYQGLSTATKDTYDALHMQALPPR

PE (CD19) flow cytometry value: 33.3
Substance: biotinylated CD19 (Acro CD9-H8259, Acro Biosystems) (from UniProt P15391 20-291)
